Results reported in a protein production outcome set (Wang et al. 2014).

Assay: label from the status in PepcDB records

| Sequence | protein production |
| --- | --- |
| MGFMIEHWDFSTPMATQETTTAEHIQPNHWYHCERLHPDIRSWLEDNHVPRATVDHLLADESRPSFHPLDDDNFMLILRGINMNENASPEDMLSIRILYFQGALISTRKIPSRAIMEIRQALAEHKGPKSLASLLNQIIEGLNGKIDLYLDTIEETLNEFDVNDESTYNHIAAQKALISIKRFIRPQQYAIRDLIESESELVTSRPHQYRFAHNNITRINETIEFYLGEVALFQDEIKHNRDEKTNKNSYLFTLVATIFLPTSFLTGLL | not failed |
| MGFSKVPLIWLCHPKIIAIDSKHVEVRIPLRRRTKNHLNSMYFGALAVGADVAGGFLAMSKAQEKGEAISLAFKGVKAEFLKRPEADVHFVCNDGHVIDEMLDHTIATGERVNRDVKIIALCPSLHGQEPMAEFALTLSLEHHHHHH | failed |
| MGFTQNSVYFLNVSEALATPQDKLHTVRLFGTVAADGLTMLDGAPGVRFRLEDKDNTSKTVWVLYKGAVPDTFKPGVEVIIEGGLAPGEDTFKARTLMTKCPLEHHHHHH | not failed |
| MGFYLGITALKSIGNNKNNNIDNENNHQAKILTFPVSFTCRTFLPARGDILQGTVKKVLWNGAFIRSGPLRYAYLSLLKMPHYHYVHSPLSEDEKPHFQKDDLSKIAVGVVVRFQVLAVRFKERPHKRRNDYYVLATLEGNGSFGP | not failed |
| MGFYQGPDNRKITGGLKGKHRDKRKYEIGNPPTFTTLSAEDIRIKDRTLGGNFKVRLKYTTTANVLDPATNTAKKVKILEILETPANKELARRGIIIRGAKIRTEAGLAVVTSRPGQDGVINAVLLKNESQRSLEHHHHHH | failed |
| MGGGGHGGGITYKGVTVHTPKTWHTVTGKGLCAVMWFWILYRAKQDGPVVMGWRHPWDGHGDHGHGDHH | failed |
| MGGIIIIDVHCHLDFKDFNRNREEVIERARSKLRAVIDSGVGLGGNRRALELASLNPGFICPTMGFHPVDASKARQDLIGEVVSQIESNIDLIVAVGETGMDFHHTRDEEGRRRQEETFRVFVELAAEHEMPLVVHARDAEERALETVLEYRVPEVIFHCYGGSIETARRILDEGYYISISTLVAFSEHHMELVRAIPLEGMLTETDSPYLSPFRGKRNEPAFVEEAVRAIARIKDMDLEDVDSITTANAERVFGL | failed |
| MGGKYSRGEERRPLGFPGFSALCCCQKTNREETPLGFCDIKARRSNLSFGREDPAYLDMAYFPDNDLHMAACAGDLPFVRLYFTLGKYEVNHRDRENRNAMHFACFYGHLELVIYLWRRGCEINVCDNHNITPLMKAVQSWEDKIVCFLLEHHANLHIKDSMGNTALHYAVYSGNLATAARLLQYGADIEERTKDNLTPLLLALRENRLKMAQFLVRMEASVHAVDSQRRNSLMYAVRCDSPVMVNLILQQGVDINLKDLFGWTALRYAIEGDRDVRTMLLELRKRNRAFQSSENSSIRLINKADAEVTSPTANEKVIEMQDPFTTNEASVEKTQTRRPAESELEVFSLEEEISYKETINNLQQNPGQRSAKTDAATENRSP | failed |
| MGGSFYPCLSVSKRAIGKNTAYSTLYYLQYTIKKASFSNVIYTSENNNIFRVSLLTFSFFYFTRTVKNSHMPTTTLEQQRTRQGVLFALGAYTIWGIAPIYFKTISEVSPLEILSHRVIWSFFFLAALLSFSKGWATVINTLKDKKKMTYLITTSVLIGANWLIFIWAVNAGHMLDASLGYYINPLLNVVLGMIFLGERLRRLQWVAVLFASAGVLIQLITFGSIPVVAIALACSFGFYGLLRKKVAMDAQTGLFIETLVMLPLTLIYLLFIADSATSNFSENTLNLNLLLIAAGIITTVPLLCFTGAATRLKLSTLGFFQYIGPSLMFLLAVGLYGEEFSADKAITFGFIWGALVIFTTDAFMARNKKNK | failed |
| MGHAALDAVLPDGGWPRRALTELLLPAHGIGEIALLLPTLARMTGAGSRVVLVAPPYVPYAPAWQAGGVALQQLEIVQAEPRDALWAFEQCLRSGACAAVLGWPQTGDARALRRLQVAADSGNCCAFALRDRRHAVNASPLEHHHHHH | failed |
| MGHETKAQLKDYVEVKIMKIKTTVAALSVLSVLSFGAFAADSIDAAQAQNREAIGTVSVSGVASSPMDIREMLNKKAEEKGATAYQITEARSGDTWHATAELYKLEHHHHHH | not failed |
| MGHHHHHHHHHHSSGHIDDDDKHMEVSVLIPAAGNGLRLGRGPKAFLQVGGRTLLEWTLAAFRDAAEVLVALPPGAEPPKGLGAVFLEGGATRQASVARLLEAASLPLVLVHDVARPFVSRGLVARVLEAAQRSGAAVPVLPVPDTLMAPEGEAYGRVVPREAFRLVQTPQGFFTALLREAHAYARRKGLEASDDAQLVQALGYPVALVEGEATAFKITHPQDLVLAEALARVWSA | not failed |
| MGHHHHHHSHAESHLQSSLITASQFFEIWLHFDADGSGYLEGKELQNLIQELQQARKKAGLELSPEMKTFVDQYGQRDDGKIGIVELAHVLPTEENFLLLFRCQQLKSCEEFMKTWRKYDTDHSGFIETEELKNFLKDLLEKANKTVDDTKLAEYTDLMLKLFDSNNDGKLELTEMARLLPVQENFLLKFQGIKMCGKEFNKAFELYDQDGNGYIDENELDALLKDLCEKNKQDLDINNITTYKKNIMALSDGGKLYRTDLALILCAGDN | not failed |
| MGHHHHHHSHGQTFAGVIRGVQSYGFFVQIEALQVEGLVHVSSPKDDWYEYRSRQQRLIGRKNRRQFGLGDRVEVEIRNVDYYRQQIDLGVLPLPEAQSETSDREP | not failed |
| MGHHHHHHSHKPIKVEKTVTINKPADELYRYWHNFENLPTFMKHLKSVKVYNEKRSHWIANAPLGNSVEWDADILEDRENEFISWASAEGADVENSGFVRFQKAPGDVPGQAASRLRGTEVKVVLEYNLPGGALAAVVAKLFGEEPEQQIGDELRRFKM | not failed |
| MGHHHHHHSHLSPDRRASLLTSLMLVKRDYRYDRVLFWGRILGLVADYYIAQGLSEDQLAPRKTLYSLNCTEWSLLPPATEEMVAQSSVVKGRFMGDPSYEYEHTELQKVNEGEKVFEEEIVVQIKEETRLVSVIDQIDKAVAIIPRGALFKTPFGPTHVNRTFEGLSLSEAKKLSSYFHFREPVELKNKTLLEKADLDPSLDFMDSLEHDIPKGSWSIQMERGNALVVLRSLLWPGLTFYHAPRTKNYGYVYVGTGEKNMDLPFML | failed |

| Sequence | protein production |
| --- | --- |
| MGHHHHHHSHMAFVTRQFMRSVSSSSTASASAKKIIVKHVTVIGGGLMGAGIAQVAAATGHTVVLVDQTEDILAKSKKGIEESLRKVAKKKFAENPKAGDEFVEKTLSTIATSTDAASVVHSTDLVVEAIVENLKVKNELFKRLDKFAAEHTIFASNTSSLQITSIANATTRQDRFAGLHFFNPVPVMKLVEVIKTPMTSQKTFESLVDFSKALGKHPVSCKDTPGFIVNRLLVPYLMEAIRLYERGDASKEDIDTAMKLGAGYPMGPFELLDYVGLDTTKFIVDGWHEMDAENPLHQPSPSLNKLVAENKFGKKTGEGFYKYK | not failed |
| MGHHHHHHSHMAQPLACARGRSQRLVCDPKAASALPDLAPDVFVLRVRLEETGEMFRVANCRGDMTVRELKEELDLMVGIPFNLQRLQYLDEGVLMDDTTLKFHDVVPGGIISLCIWHHDGWTEL | failed |
| MGHHHHHHSHMDALSPSPAIPSNTDYPGPHSFDVSFQQSSTAKSATWTYSTELKKLYCQIAKTCPIQIKVMTPPPQGAVIRAMPVYKKAEHVTEVVKRCPNHELSREFNEGQIAPPSHLIRVEGNSHAQYVEDPITGRQSVLVPYEPPQVGTEFTTVLYNFMCNSSCVGGMNRRPILIIVTLETRDGQVLGRRCFEARICACPGRDRKADEDSIRKQQVSDSTKNGDGTKRPFRQNTHGIQM | failed |
| MGHHHHHHSHMDNHNPMKDIEVTSSPDDSIGCLSFSPPTLPGNFLIAGSWANDVRCWEVQDSGQTIPKAQQMHTGPVLDVCWSDDGSKVFTASCDKTAKMWDLSSNQAIQIAQHDAPVKTIHWIKAPNYSCVMTGSWDKTLKFWDTRSSNPMMVLQLPERCYCADVIYPMAVVATAERGLIVYQLENQPSEFRRIESPLKHQHRCVAIFKDKQNKPTGFALGSIEGRVAIHYINPPNPAKDNFTFKCHRSNGTNTSAPQDIYAVNGIAFHPVHGTLATVGSDGRFSFWDKDARTKLKTSEQLDQPISACCFNHNGNIFAYASSYDWSKGHEFYNP | failed |
| MGHHHHHHSHMDSHDLQRFLSDFRDLMSWINGIRGLVSSDELAKDVTGAEALLERHQEHRTEIDARAGTFQAFEQFGQQLLAHGHYASPEIKQKLDILDQERADLEKAWVQRRMMLDQCLELQLFHRDCEQAENWMAAREAFLNTEDKGDSLDSVEALIKKHEDFDKAINVQEEKIAALQAFADQLIAAGHYAKGDISSRRNEVLDRWRRLKAQMIEKR | not failed |
| MGHHHHHHSHMGKGTFVYRTTITSPHEEVWAFFSSPTNLQTLTKIPKVVLDSTSETTQGSEIEMKLFVLGIPFQWKAYIEAYNPPFSFTDVAIKMPFPIVYWRHTHRFTTEGERTVMIDEIQYEIKMANKLVIFFLRRMFRARESALHRYFQS | not failed |
| MGHHHHHHSHMKEDQKNKIPEDILKQLLSVDPETVYASGYASWQEGDYSRAVIDFSWLVMAQPWSWRAHIALAGTWMMLKEYTTAINFYGHALMLDASHPEPVYQTGVCLKMMGEPGLAREAFQTAIKMSYADASWSEIRQNAQKMVDTLIA | failed |
| MGHHHHHHSHMKLVTRSCDPGEKLDSKIGVLIGKGLHEFDSLKDPEVNEFRRKMRKFSEEKILSLVGLSWMDWLKQTYPPEHEPSIPENLEDKLYGGKLIVAVHFENCQDVFSFQVSPNMNPIKVNELAIQKRLTIHGKEDEVSPYDYVLQVSGRVEYVFGDHPLIQFQYIRNCVMNRALPHFILVECCKIKK | failed |
| MGHHHHHHSHMKMEHQNKRSPLHAAAEAGHVDICHMLVQAGANIDTCSEDQRTPLMEAAENNHLEAVKYLIKAGALVDPKDAEGSTCLHLAAKKGHYEVVQYLLSNGQMDVNCQDDGGWTPMIWATEYKHVDLVKLLLSKGSDINIRDNEENICLHWAAFSGCVDIAEILLAAKCDLHAVNIHGDSPLHIAARENRYDCVVLFLSRDSDVTLKNKEGETPLQCASLNSQV | failed |
| MGHHHHHHSHMLVDNLYRVVSNQKDAAVIRVHLEVNASHEIFKGHFPEVPVLPGVCMVQCIKELIEESLLVKTQIDKGDMIKFLSMLNPVESNSIQAEISIKEKTETRIVFQATLKNEDRFLLKYSGSLVVLN | failed |
| MGHHHHHHSHMPRGPAGEAGASPPVRRVRVVKQEAGGLGISIKGGRENRMPILISKIFPGLAADQSRALRLGDAILSVNGTDLRQATHDQAVQALKRAGKEVLLEVKFIREVT | failed |
| MGHHHHHHSHMSSRGHSTLPRTLMAPRMISEGDIGGIAQITSSLFLGRGSVASNRHLLQARGITCIVNATIEIPNFNWPQFEYVKVPLADMPHAPIGLYFDTVADKIHSVSRKHGATLVHCAAGVSRSATLCIAYLMKFHNVCLLEAYNWVKARRPVIRPNVGFWRQLIDYERQLFGKSTVKMVQTPYGIVPDVYEKESRHLMPYWGI | failed |
| MGHHHHHHSHMSYARVRAVVMTRDDSSGGWLPLGGSGLSSVTVFKVPHQEENGCADFFIRGERLRDKMVVLECMLKKDLIYNKVTPTFHHWKIDDKKFGLTFQSPADARAFDRGIRRAIEDISQGCPESK | not failed |
| MGHHHHHHSHMTKIIPVASGKGGVGKTSFVANVGYKLSSLGKTVILVDLDLGGSNLHTCLGVKNKGVGIGSFINKKSKSFSDLVCKTSYDKLYLIPGDALYTGTANLPFSIKKKIIESIQKDLIADFIFLDLGSGTSYNTIDFYLASYSGVIVTIPETPSILNAYSFLKNALYRLLYLGFP | failed |
| MGHHHHHHSHMTKLPPIEQLLPHDKPMILVDRAMDIQQDTIHCQVDIAEHNPFFDSASQTVPAYVGIEFMAQSVAAWSGYHALMKEQAPPIGFLLGSRRYTSECDAFSRGQMLDVYAEKVMEDNGMAVFSARIELQGTVVATCQLNVYVPSEEKLQEMKIRSQQ | not failed |
